From patent US12528864 (GlaxoSmithKline, dated 2026) come the findings set out here.

Experiment [1] deals with T1, human CD96v2 expressed on cells (CHO cells; transiently transfected HEK cells) (human, UniProt P40200-2 22-569).
T1 construct: whole, on cells; the cell is named under assay; also called CHO-huCD96; hCD96v2
T1 sequence (looked up): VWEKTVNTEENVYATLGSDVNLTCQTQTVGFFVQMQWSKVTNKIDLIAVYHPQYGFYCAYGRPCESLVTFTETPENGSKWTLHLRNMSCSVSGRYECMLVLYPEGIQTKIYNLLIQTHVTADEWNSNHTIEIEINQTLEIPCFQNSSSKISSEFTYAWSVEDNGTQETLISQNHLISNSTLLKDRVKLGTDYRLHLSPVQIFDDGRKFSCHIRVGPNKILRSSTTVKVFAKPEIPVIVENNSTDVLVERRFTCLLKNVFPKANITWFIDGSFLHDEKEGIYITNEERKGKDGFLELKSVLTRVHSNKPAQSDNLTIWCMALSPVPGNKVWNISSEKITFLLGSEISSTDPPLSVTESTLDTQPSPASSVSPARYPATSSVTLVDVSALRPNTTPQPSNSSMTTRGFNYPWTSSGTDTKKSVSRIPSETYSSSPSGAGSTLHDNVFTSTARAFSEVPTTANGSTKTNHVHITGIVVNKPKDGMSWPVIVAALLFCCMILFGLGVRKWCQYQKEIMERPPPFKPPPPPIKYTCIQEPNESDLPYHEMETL
As to the kind of experiment: flow cytometry on CHO cells expressing human CD96v2. In general terms: A flow cytometer gives signals particle by particle.

The target of experiment [2] is T2, cynomolgus monkey CD96v2 expressed on cells (CHO cells; transiently transfected HEK cells) (cynomolgus monkey, UniProt A0A2K5TWV6 22-569).
T2 construct: the cell is named under assay; also called CHO-cyCD96; Cyno CD96v2
T2 sequence: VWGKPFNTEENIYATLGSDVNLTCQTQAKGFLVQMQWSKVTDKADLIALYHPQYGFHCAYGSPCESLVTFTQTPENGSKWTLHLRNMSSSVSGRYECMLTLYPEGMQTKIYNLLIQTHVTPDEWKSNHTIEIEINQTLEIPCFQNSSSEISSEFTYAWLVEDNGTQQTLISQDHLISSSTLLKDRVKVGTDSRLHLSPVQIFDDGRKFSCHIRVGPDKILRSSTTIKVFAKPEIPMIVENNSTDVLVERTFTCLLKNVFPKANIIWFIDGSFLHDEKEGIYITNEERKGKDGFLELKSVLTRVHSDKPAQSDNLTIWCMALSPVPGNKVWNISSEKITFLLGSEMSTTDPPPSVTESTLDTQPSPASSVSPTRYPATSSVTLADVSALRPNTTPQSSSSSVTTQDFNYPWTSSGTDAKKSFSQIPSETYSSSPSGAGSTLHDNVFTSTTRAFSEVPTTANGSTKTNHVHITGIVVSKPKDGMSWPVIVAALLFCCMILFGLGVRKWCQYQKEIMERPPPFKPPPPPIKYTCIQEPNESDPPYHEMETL
Description: flow cytometry on CHO cells expressing cynomolgus CD96v2.

The target in experiment [3] is T1, human CD96v2 expressed on cells (CHO …). As to the kind of experiment: flow cytometry, inhibition of human CD155-Fc-AF647 binding to CHO cells expressing human CD96v2; competitor CD155-Fc.

B1: 42Y073-86F08-16 (antibody)
heavy: not shown
light: DIQLTQSPSSLSASVGDRVTITCRASQSISSYLNWYQQKPGKAPKLLIYAASSLQSGVPSRFSGSGSGTDFTLTISSLQPEDFATYYCQQVLHTITFGGGTKVEIKRTVAAPSVFIFPPSDEQLKSGTASVVCLLNNFYPREAKVQWKVDNALQSGNSQESVTEQDSKDSTYSLSSTLTLSKADYEKHKVYACEVTHQGLSSPVTKSFNRGEC
notes: also called 42Y073-88F08-16
In the case of B1, the EC50 was 0.03 nM in experiment [1] and 0.04 nM in experiment [2]. For the same molecule, in experiment [3], the IC50 was found to be 0.78 nM.

B2: 42Y073-86F08-1 (antibody, V domains shown)
VH: QVQLVQSGAEVKKPGSSVKVSCKASGGTFSSYAISWVRQAPGQGLEWMGGIIPIFGTASYAQKFQGRVTITADESTSTAYMELSSLRSEDTAVYYCARGAGYYGDKDPMDVWGQGTTVTVSS
VL: DIQLTQSPSSLSASVGDRVTITCRASQSISSYLNWYQQKPGKAPKLLIYAASSLQSGVPSRFSGSGSGTDFTLTISSLQPEDFATYYCQQVLHTITFGGGTKVEIK
In experiment [1], B2 showed a concentration for a half-maximal effect (EC50) of 0.07 nM. The same molecule had a 50% inhibitory concentration (IC50) in experiment [3] of 0.33 nM.

B3: 42Y073-86F08-3 (antibody, V domains shown)
VH: QVQLVQSGAEVKKPGSSVKVSCKASGGTFVNYAISWVRQAPGQGLEWMGGIIPALGTANYAQKFQGRVTITADESTSTAYMELSSLRSEDTAVYYCARGAGYYGDKDPMDVWGQGTTVTVSS
VL: DIQLTQSPSSLSASVGDRVTITCRASQSISSYLNWYQQKPGKAPKLLIYAASSLQSGVPSRFSGSGSGTDFTLTISSLQPEDFATYYCQQVLHTITFGGGTKVEIK
notes: Fully human antibody
Regarding B3, in experiment [1], the half-maximal effective concentration (EC50) is 0.04 nM. This molecule also gave an IC50 in experiment [3] of 0.28 nM.

B4: 42Y073-1A01-103 (antibody, V domains shown)
VH: QVQLVQSGAEVKKPGASVKVSCKASGYTFTAYQMHWVRQAPGQGLEWMGIINPAGGWTSYAQKFQGRVTMTRDTSTSTVYMELSSLRSEDTAVYYCARETAYYTTKGNWFDPWGQGTLVTVSS
VL: DIQMTQSPSSLSASVGDRVTITCRASQSISSYLNWYQQKPGKAPKLLIYAASSLQSGVPSRFSGSGSGTDFTLTISSLQPEDFATYYCQQSLYPPRTFGGGTKVEIK
notes: Fully human antibody
On to B4, for which the results for the EC50 in experiment [1] and in experiment [2] were 0.02 nM and 0.03 nM, respectively. This molecule also showed an IC50 in experiment [3] of 0.03 nM.

B5: 42Y073-86F04-6 (antibody, V domains shown)
VH: QVQLVQSGAEVKKPGSSVKVSCKASGGTFSGHAISWVRQAPGQGLEWMGGIIPIFGRARYAQKFQGRVTITADESTSTAYMELSSLRSEDTAVYYCARLLGESGMDVWGQGTTVTVSS
VL: DIQMTQSPSSLSASVGDRVTITCRASQSISSYLNWYQQKPGKAPKLLIYAASSLQSGVPSRFSGSGSGTDFTLTISSLQPEDFATYYCQQPYFSPPTFGGGTKVEIK
notes: Fully human antibody
Take B5: the EC50 turned out to be 0.06 nM in experiment [1] and 0.11 nM in experiment [2]. This molecule returned a half-maximal inhibitory concentration (IC50) in experiment [3] of 0.25 nM.

B6: 42Y073-86F04-4 (antibody, V domains shown)
VH: QVQLVQSGAEVKKPGSSVKVSCKASGGTFESEAISWVRQAPGQGLEWMGGIIPIFGRARYAQKFQGRVTITADESTSTAYMELSSLRSEDTAVYYCARLLGESGMDVWGQGTTVTVSS
VL: DIQMTQSPSSLSASVGDRVTITCRASQSISSYLNWYQQKPGKAPKLLIYAASSLQSGVPSRFSGSGSGTDFTLTISSLQPEDFATYYCQQPYFSPPTFGGGTKVEIK
notes: Fully human antibody
With B6, the EC50 in experiment [1] was found to be 0.04 nM; in experiment [2], 0.07 nM. In experiment [3], this molecule returned a half-inhibitory concentration (IC50) of 0.18 nM.

B7: 42Y073-86F04-3 (antibody, V domains shown)
VH: QVQLVQSGAEVKKPGSSVKVSCKASGGTFSYNAISWVRQAPGQGLEWMGGIIPIMGTARYAQKFQGRVTITADESTSTAYMELSSLRSEDTAVYYCARLLGESGMDVWGQGTTVTVSS
VL: DIQMTQSPSSLSASVGDRVTITCRASQSISSYLNWYQQKPGKAPKLLIYAASSLQSGVPSRFSGSGSGTDFTLTISSLQPEDFATYYCQQPYFSPPTFGGGTKVEIK
notes: Fully human antibody
For B7, the 50% effective concentration (EC50) in experiment [1] and in experiment [2] was 0.04 nM throughout. The molecule further displayed an IC50 in experiment [3] of 0.31 nM.

B8: 42Y073-86F04-5 (antibody, V domains shown)
VH: QVQLVQSGAEVKKPGSSVKVSCKASGGTFSSHAISWVRQAPGQGLEWMGGIIPIFGRGKYAQKFQGRVTITADESTSTAYMELSSLRSEDTAVYYCARLLGESGMDVWGQGTTVTVSS
VL: DIQMTQSPSSLSASVGDRVTITCRASQSISSYLNWYQQKPGKAPKLLIYAASSLQSGVPSRFSGSGSGTDFTLTISSLQPEDFATYYCQQPYFSPPTFGGGTKVEIK
notes: Fully human antibody
Consider B8, for which the concentration giving a half-maximal response (EC50) in experiment [1] worked out at 0.05 nM; in experiment [2], 0.07 nM. Besides, the IC50 in experiment [3] amounted to 0.38 nM.

B9: 42Y073-1A01-97 (antibody, V domains shown)
VH: QVQLVQSGAEVKKPGASVKVSCKASGYTFTRAAMHWVRQAPGQGLEWMGIINPAGGYTSYAQKFQGRVTMTRDTSTSTVYMELSSLRSEDTAVYYCARETAYYTTKGNWFDPWGQGTLVTVSS
VL: DIQMTQSPSSLSASVGDRVTITCRASQSISSYLNWYQQKPGKAPKLLIYAASSLQSGVPSRFSGSGSGTDFTLTISSLQPEDFATYYCQQSLYPPRTFGGGTKVEIK
notes: Fully human antibody
Turning to B9, the concentration giving a half-maximal response (EC50) stood at 0.77 nM in experiment [1] and 0.02 nM in experiment [2]. The same molecule yielded a concentration for half-maximal inhibition (IC50) in experiment [3] of 0.03 nM.

B10: 42Y073-1A01-100 (antibody, V domains shown)
VH: QVQLVQSGAEVKKPGASVKVSCKASGYTFTTYRMHWVRQAPGQGLEWMGIINPSGGLTQYAQKFQGRVTMTRDTSTSTVYMELSSLRSEDTAVYYCARETAYYTTKGNWFDPWGQGTLVTVSS
VL: DIQMTQSPSSLSASVGDRVTITCRASQSISSYLNWYQQKPGKAPKLLIYAASSLQSGVPSRFSGSGSGTDFTLTISSLQPEDFATYYCQQSLYPPRTFGGGTKVEIK
notes: Fully human antibody
In the case of B10, the concentration for a half-maximal effect (EC50) was determined as 0.02 nM in experiment [1] and 0.04 nM in experiment [2]. The IC50 in experiment [3] worked out at 0.06 nM.

B11: 42Y073-86F04-18 (antibody, V domains shown)
VH: QVQLVQSGAEVKKPGSSVKVSCKASGGTFSSRAISWVRQAPGQGLEWMGGIIPIMGTARYAQKFQGRVTITADESTSTAYMELSSLRSEDTAVYYCARLLGESGMDVWGQGTTVTVSS
VL: DIQMTQSPSSLSASVGDRVTITCRASQSISSYLNWYQQKPGKAPKLLIYAASSLQSGVPSRFSGSGSGTDFTLTISSLQPEDFATYYCQQPYFSPPTFGGGTKVEIK
notes: Fully human antibody
In the case of B11, the half-maximal effective concentration (EC50) was 0.07 nM in experiment [1] and 0.11 nM in experiment [2]. Also, the IC50 in experiment [3] was 0.59 nM.

B12: 42Y073-86F04-33 (antibody, V domains shown)
VH: QVQLVQSGAEVKKPGSSVKVSCKASGGTFSSYAISWVRQAPGQGLEWMGGILPIFGRANYAQKFQGRVTITADESTSTAYMELSSLRSEDTAVYYCARLLGESGMDVWGQGTTVTVSS
VL: DIQMTQSPSSLSASVGDRVTITCRASQSISSYLNWYQQKPGKAPKLLIYAASSLQSGVPSRFSGSGSGTDFTLTISSLQPEDFATYYCQQPYFSPPTFGGGTKVEIK
notes: Fully human antibody
In the case of B12, the figures for the concentration giving a half-maximal response (EC50) in experiment [1] and in experiment [2] were 0.04 nM and 0.05 nM, respectively. This molecule also showed an IC50 in experiment [3] of 0.71 nM.

B13: 42Y073-1A01-85 (antibody, V domains shown)
VH: QVQLVQSGAEVKKPGASVKVSCKASGYTFTSYPMHWVRQAPGQGLEWMGIINPSGGFTSYAQKFQGRVTMTRDTSTSTVYMELSSLRSEDTAVYYCARETAYYTTKGNWFDPWGQGTLVTVSA
VL: DIQMTQSPSSLSASVGDRVTITCRASQSISSYLNWYQQKPGKAPKLLIYAASSLQSGVPSRFSGSGSGTDFTLTISSLQPEDFATYYCQQSLYPPRTFGGGTKVEIK
notes: Fully human antibody
Take B13: the EC50 in experiment [1] was found to be 0.47 nM; in experiment [2], 0.01 nM. The molecule further showed an IC50 in experiment [3] of 0.03 nM.

B14: 42Y073-1A01-126 (antibody, V domains shown)
VH: QVQLVQSGAEVKKPGASVKVSCKASGYTFTRYNMHWVRQAPGQGLEWMGWINPAGGSTSYAQKFQGRVTMTRDTSTSTVYMELSSLRSEDTAVYYCARETAYYTTKGNWFDPWGQGTLVTVSA
VL: DIQMTQSPSSLSASVGDRVTITCRASQSISSYLNWYQQKPGKAPKLLIYAASSLQSGVPSRFSGSGSGTDFTLTISSLQPEDFATYYCQQSLYPPRTFGGGTKVEIK
notes: Fully human antibody
Take B14: the 50% effective concentration (EC50) turned out to be 0.02 nM in experiment [1] and 0.03 nM in experiment [2]. For the same molecule, the IC50 in experiment [3] amounted to 0.1 nM.

B15: 42Y073-1A01-191 (antibody, V domains shown)
VH: QVQLVQSGAEVKKPGASVKVSCKASGYTFTKYRMHWVRQAPGQGLEWMGIINPQGGSTSYAQKFQGRVTMTRDTSTSTVYMELSSLRSEDTAVYYCARETAYYTTKGNWFDPWGQGTLVTVSA
VL: DIQMTQSPSSLSASVGDRVTITCRASQSISSYLNWYQQKPGKAPKLLIYAASSLQSGVPSRFSGSGSGTDFTLTISSLQPEDFATYYCQQSLYPPRTFGGGTKVEIK
notes: Fully human antibody
For B15, the EC50 in experiment [1] amounted to 0.01 nM; in experiment [2], 0.02 nM. In experiment [3], this molecule displayed an IC50 of 0.03 nM.

For orientation: EC50 means the concentration needed to bring the measured effect to its halfway point. What is called IC50 is the concentration at which inhibition is half-maximal.
